# From patent US20240132624A1 (Ablynx, published 2024)
# Numbering of substitutions follows the chain as printed.
# B1: T0263018B11 F29D (VHH, name in Kabat numbering)
# VHH: EVQLVESGGGVVQPGGSLRLSCAASGFTDSSYAMYWVRQAPGKGLEWVSAISSGGGSTDYADSVKGRFTISRDNSKNTLYLQMNSLRPEDTALYYCAADTLYTSLTWYSYWGQGTLVTVSS
# notes: FLAG3-His6 tagged
# B2: T0263018B11 G54P (VHH, name in Kabat numbering)
# VHH: B1 VHH with D29F, G55P
# notes: FLAG3-His6 tagged
# B3: T0263018B11 S30K (VHH, name in Kabat numbering)
# VHH: B1 VHH with D29F, S30K
# notes: FLAG3-His6 tagged
# B4: T0263018B11 G54E (VHH, name in Kabat numbering)
# VHH: B1 VHH with D29F, G55E
# notes: FLAG3-His6 tagged
# B5: T0263018B11 F29S (VHH, name in Kabat numbering)
# VHH: B1 VHH with D29S
# notes: FLAG3-His6 tagged
# B6: T0263018B11 G26H (VHH, name in Kabat numbering)
# VHH: B1 VHH with G26H, D29F
# notes: FLAG3-His6 tagged
# B7: T0263018B11 S30E (VHH, name in Kabat numbering)
# VHH: B1 VHH with D29F, S30E
# notes: FLAG3-His6 tagged
# B8: T0263018B11 G26N (VHH, name in Kabat numbering)
# VHH: B1 VHH with G26N, D29F
# notes: FLAG3-His6 tagged
# B9: T0263018B11 G26Y (VHH, name in Kabat numbering)
# VHH: B1 VHH with G26Y, D29F
# notes: FLAG3-His6 tagged
# B10: T0263018B11 G55D (VHH, name in Kabat numbering)
# VHH: B1 VHH with D29F, G56D
# notes: FLAG3-His6 tagged
# B11: T0263018B11 L100aM (VHH, name in Kabat numbering)
# VHH: B1 VHH with D29F, L105M
# notes: FLAG3-His6 tagged
# B12: T0263018B11 F29V (VHH, name in Kabat numbering)
# VHH: B1 VHH with D29V
# notes: FLAG3-His6 tagged
# B13: T0263018B11 G54L (VHH, name in Kabat numbering)
# VHH: B1 VHH with D29F, G55L
# notes: FLAG3-His6 tagged
# B14: T0263018B11 S30D (VHH, name in Kabat numbering)
# VHH: B1 VHH with D29F, S30D
# notes: FLAG3-His6 tagged
# B15: T0263018B11 F29G (VHH, name in Kabat numbering)
# VHH: B1 VHH with D29G
# notes: FLAG3-His6 tagged
# B16: T0263018B11 G26M (VHH, name in Kabat numbering)
# VHH: B1 VHH with G26M, D29F
# notes: FLAG3-His6 tagged
# B17: T0263018B11 S30Q (VHH, name in Kabat numbering)
# VHH: B1 VHH with D29F, S30Q
# notes: FLAG3-His6 tagged
# B18: T0263018B11 F29H (VHH, name in Kabat numbering)
# VHH: B1 VHH with D29H
# notes: FLAG3-His6 tagged
# B19: T0263018B11 G26D (VHH, name in Kabat numbering)
# VHH: B1 VHH with G26D, D29F
# notes: FLAG3-His6 tagged
# B20: T0263018B11 S30G (VHH, name in Kabat numbering)
# VHH: B1 VHH with D29F, S30G
# notes: FLAG3-His6 tagged
# B21: T0263018B11 G26E (VHH, name in Kabat numbering)
# VHH: B1 VHH with G26E, D29F
# notes: FLAG3-His6 tagged
# B22: T0263018B11 G26Q (VHH, name in Kabat numbering)
# VHH: B1 VHH with G26Q, D29F
# notes: FLAG3-His6 tagged
# B23: T0263018B11 S30N (VHH, name in Kabat numbering)
# VHH: B1 VHH with D29F, S30N
# notes: FLAG3-His6 tagged
# B24: T0263018B11 G26S (VHH, name in Kabat numbering)
# VHH: B1 VHH with G26S, D29F
# notes: FLAG3-His6 tagged
# Target: T1, cyno FcRn/b2M (cyno, UniProt Q8SPV9 24-297; Q8SPW0 21-119, biotinylated)
# T1 construct: bought recombinant biotinylated protein (Immunitrack ITF05 or ACRO FCM-C82W5); also called cFcRn; cFcRn/cb2M
# T1 sequence (Q8SPV9 24-297 limits assumed, chain 1 of 2): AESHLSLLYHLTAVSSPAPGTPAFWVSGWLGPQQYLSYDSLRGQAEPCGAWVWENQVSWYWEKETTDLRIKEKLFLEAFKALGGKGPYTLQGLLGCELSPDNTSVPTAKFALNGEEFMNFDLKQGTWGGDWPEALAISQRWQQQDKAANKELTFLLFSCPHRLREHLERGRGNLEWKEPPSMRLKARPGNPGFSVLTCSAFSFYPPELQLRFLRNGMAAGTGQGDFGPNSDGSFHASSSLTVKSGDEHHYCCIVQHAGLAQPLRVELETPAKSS
# T1 sequence (Q8SPW0 21-119 limits assumed, chain 2 of 2): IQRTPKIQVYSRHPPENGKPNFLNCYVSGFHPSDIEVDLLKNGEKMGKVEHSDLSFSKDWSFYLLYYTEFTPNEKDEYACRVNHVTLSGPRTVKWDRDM
# Test: SPR off-rate; pH 7.4 vs pH 6.0;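 note: surface plasmon resonance with diluted periplasmic extracts flowed over ligand surfaces, 120 s association and 600–3600 s dissociation at 25 °C, running buffer containing 150 mM NaCl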
# Method: (§1) All kinetic measurements have been performed on ProteOn XPR36 (BioRad Laboratories, Inc.), MASS-2 (Sierra sensors, Gmbh) or SPR-32 (Bruker Corporation). […] The phytip purified periplasmic extracts were diluted 1:10 in running buffer (CPA+150 mM NaCl+0.005% Tw20 at pH 5.5, pH 6.0 or pH 7.4) and injected over the ligand surfaces (association: 120 s at 45 μL/min; dissociation: 600s-3600 s at 45 μL/min). Experiments were carried out at 25° C.
row,Binder,kd ratio pH 7.4/6.0
1,B1,54
2,B2,24
3,B3,18
4,B4,39
5,B5,45
6,B6,159
7,B7,46
8,B8,86
9,B9,51
10,B10,54
11,B11,41
12,B12,54
13,B13,35
14,B14,65
15,B15,56
16,B16,349
17,B17,47
18,B18,42
19,B19,61
20,B20,35
21,B21,62
22,B22,2010
23,B23,46
24,B24,67

# Target: T2, human FcRn/b2M (human, UniProt P61769 21-119, biotinylated)
# T2 construct: bought recombinant biotinylated protein (ACRO FCM-H82W4 or Immunitrack ITF01); also called hFcRn; hFcRn/hb2M
# T2 sequence (chain, as listed by the source limits assumed, chain 1 of 2): as the sequence (Q8SPV9 24-297 limits assumed, chain 1 of 2) above, with D39N, Q44E, S99G, G189S, N190S, M217L, T269S counted along it
# T2 sequence (P61769 21-119 limits assumed, chain 2 of 2): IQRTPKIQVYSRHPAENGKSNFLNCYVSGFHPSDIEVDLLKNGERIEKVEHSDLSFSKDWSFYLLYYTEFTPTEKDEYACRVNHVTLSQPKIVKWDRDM
# Test: SPR off-rate; pH 7.4 vs pH 6.0;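 note: surface plasmon resonance with diluted periplasmic extracts flowed over ligand surfaces, 120 s association and 600–3600 s dissociation at 25 °C, running buffer containing 150 mM NaCl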
# Method: as §1
row,Binder,kd ratio pH 7.4/6.0
1,B1,39
2,B2,21
3,B3,9
4,B4,29
5,B5,41
6,B6,62
7,B7,37
8,B8,53
9,B9,42
10,B10,41
11,B11,42
12,B12,42
13,B13,26
14,B14,41
15,B15,45
16,B16,52
17,B17,42
18,B18,36
19,B19,53
20,B20,38
21,B21,44
22,B22,53
23,B23,42
24,B24,52

# Target: T1, cyno FcRn/b2M
# Test: SPR pH 7.4;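 note: surface plasmon resonance kinetics, periplasmic extracts diluted 1:10 flowed over immobilized target at 25 °C, 120 s association then 600–3600 s dissociation, buffer with 150 mM NaCl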
# Method: as §1
row,Binder,koff [s⁻¹]
1,B1,0.15
2,B2,0.041
3,B3,0.055
4,B4,0.062
5,B5,0.059
6,B6,0.026
7,B7,0.073
8,B8,0.032
9,B9,0.028
10,B10,0.07
11,B11,0.51
12,B12,0.086
13,B13,0.06
14,B14,0.17
15,B15,0.14
16,B16,0.025
17,B17,0.026
18,B18,0.13
19,B19,0.058
20,B20,0.019
21,B21,0.05
22,B22,0.026
23,B23,0.061
24,B24,0.053

# Target: T2, human FcRn/b2M
# Test: SPR pH 7.4;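 note: surface plasmon resonance kinetics, periplasmic extracts diluted 1:10 flowed over immobilized target at 25 °C, 120 s association then 600–3600 s dissociation, buffer with 150 mM NaCl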
# Method: as §1
row,Binder,koff [s⁻¹]
1,B1,0.14
2,B2,0.033
3,B3,0.069
4,B4,0.046
5,B5,0.066
6,B6,0.034
7,B7,0.071
8,B8,0.042
9,B9,0.027
10,B10,0.07
11,B11,0.62
12,B12,0.089
13,B13,0.041
14,B14,0.13
15,B15,0.15
16,B16,0.033
17,B17,0.035
18,B18,0.14
19,B19,0.063
20,B20,0.025
21,B21,0.042
22,B22,0.034
23,B23,0.082
24,B24,0.047

# Target: T1, cyno FcRn/b2M
# Test: SPR pH 6.0;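 note: surface plasmon resonance kinetics at 25 °C, diluted periplasmic extracts injected over immobilized ligand surfaces, 120 s association then 600–3600 s dissociation, running buffer containing 150 mM NaCl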
# Method: as §1
row,Binder,koff [s⁻¹]
1,B1,0.0028
2,B2,0.0017
3,B3,0.003
4,B4,0.0016
5,B5,0.0013
6,B6,0.00016
7,B7,0.0016
8,B8,0.00037
9,B9,0.00055
10,B10,0.0013
11,B11,0.013
12,B12,0.0016
13,B13,0.0017
14,B14,0.0026
15,B15,0.0025
16,B16,7.1e-05
17,B17,0.00055
18,B18,0.0031
19,B19,0.00095
20,B20,0.00054
21,B21,0.00081
22,B22,1.3e-05
23,B23,0.0013
24,B24,0.00079

# Target: T2, human FcRn/b2M
# Test: SPR pH 6.0;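 note: surface plasmon resonance kinetics at 25 °C, diluted periplasmic extracts injected over immobilized ligand surfaces, 120 s association then 600–3600 s dissociation, running buffer containing 150 mM NaCl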
# Method: as §1
row,Binder,koff [s⁻¹]
1,B1,0.0036
2,B2,0.0016
3,B3,0.0078
4,B4,0.0016
5,B5,0.0016
6,B6,0.00055
7,B7,0.0019
8,B8,0.00081
9,B9,0.00065
10,B10,0.0017
11,B11,0.015
12,B12,0.0021
13,B13,0.0016
14,B14,0.0032
15,B15,0.0033
16,B16,0.00063
17,B17,0.00085
18,B18,0.0039
19,B19,0.0012
20,B20,0.00066
21,B21,0.00095
22,B22,0.00065
23,B23,0.0019
24,B24,0.00091
